# Assay results from patent US11026994B2, “Syndecan-2 compositions and methods of use” (ORBSEN THERAPEUTICS LIMITED, priority 2013, dated 2021).
# “Also recorded” adds a separate entry of the source.
# B1: Recombinant SDC2: recombinant Syndecan-2 (SDC2) protein (protein, UniProt P34741 19-201, looked up)
# Syndecan-2: ESRAELTSDKDMYLDNSSIEEASGVYPIDDDDYASASGSGADEDVESPELTTSRPLPKILLTSAAPKVETTTLNIQNKIPAQTKSPEETDKEKVHLSDSERKMDPAEEDTNVYTEKHSDSLFKRTEVLAAVIAGGVIGFLFAIFLILLLVYRMRKKDEGSYDLGERKPSSAAYQKAPTKEFYA
# Columns and labels:
# [1] = test system: SDC2 RNA; experiment: SDC2 RNA levels in treated cell populations; type: cell-based, human
# From the text: HDAC inhibitors and sirtuins may be used to increase SDC2 expression. […] The sirtuin family of HDACs, including SIRT1 and SIRT2, may be used to increase SDC2 expression. The sirtuins are NAD-dependant HDACs and are reported to deacetylate p53 protein—acetylation of p53 is reported to be important for its transactivation/transcription activity. Thus sirtuins are key regulators of p53 activity. Examples of sirtuins include nicotinamide, sirtinol, EX-527 and tenovins. […] DMSO is also reported to contain HDAC inhibitor (p53 activation) capacity.
# DMOG is a hypoxia mimetic, and other hypoxia mimetics for use in the invention include cobalt chloride, EDHB and desferrioxamine. Hypoxia is reported to stimulate p53 (via ATR/CHK1 kinases).
# We tested various HDAC inhibitors for their effect on SDC2 expression on human cell populations initially isolated on the basis of SDC2 expression and maintained subsequently in culture.
# [2] = test system: SDC2 secretion; experiment: SDC2 secretion after environmental toxin BPDE; type: cell-based, human; settings: 600 nM BPDE
# [3] = test system: SDC2 shedding from human MSCs; experiment: SDC2 ELISA of supernatants of Nutlin-3a treated MSCs; type: cell-based; settings: 24 h
# Experimental: MSCs were plated at a density of 10^5 cells per well of a 6-well plate (Nunc) in complete media (α-MEM, 10% FBS) and left to adhere overnight. Medium was then exchanged for serum-free containing Nutlin-3a or DMSO as a carrier control. 24 h post-induction the cells were harvested for both RNA and protein and the serum-free supernatant was collected for ELISA.
# The levels of human Syndecan-2 was measured in supernatants collected from hMSCs using commercially available ELISA assays (CUSABIO). The assay was conducted as per the manufacturer's instructions. Calibration curves were prepared using purified standards for SDC2. Curve fitting was accomplished by sigmoidal logisitic regression following manufacturer's instructions.
# 24 h post-treatment with Nutlin-3a (5, 10, 20 μM) or DMSO carrier control (5, 20 μM), the supernatant from MSCs was collected, centrifuged for 5 min at 1500 rpm and subjected to SDC2 ELISA including unconditioned serum-free media as an additional control.
# MSCs treated with either Nutlin-3a or DMSO as a carrier control for 24 h in serum-free media. The serum-free supernatants were collected and a commercially available SDC2 ELISA kit was used to detect shed SDC2 present in the supernatants.
# [4] = test system: Du145; experiment: Cancer cell migration toward conditioned medium (xCELLigence RTCA); type: cell-based; settings: Recombinant SDC2 500 ng/ml
# From the text: (§1) Cell migration is a critical parameter for in vitro cell culture-related studies. It is necessary to monitor the dynamic changes of cell populations under different conditions. Using a real time cell analyser (RTCA, xCELLigence, Roche) which is an impedance-based device we can monitor the following properties in real time: proliferation, migration and cell adherence. Such properties are involved in cancer evolution. We used this method to establish the migratory capacity of cancer cells toward conditioned medium. The model is accepted as predictive of efficacy in cancer therapy—reduced migration in the model indicates anti-cancer properties.
# (§2) In our investigations, cell migration was determined using 16-well CIM plates read in real-time using the aforementioned xCELLigence device. For these studies a variety of cancer cell lines were used from breast cancer (MDA-MB-231, MDA-MB-486, MCF-10A), prostate cancer (DU145), pancreas cancer (SU-86-86) and colon carcinoma (HCT116).
# [5] = test system: MDA-MB-231; experiment: as above; type: cell-based; settings: one symbol per experiment
# From the text: as §1, §2
# [6] = test system: SU-86-86; experiment: as above; type: cell-based
# From the text: as §1, §2
# [7] = test system: HCT116; experiment: as above; type: cell-based; set-up: key: ↑: increased migration compared to conditioned media; ↓: decreased cell migration compared to conditioned media; —: no changed compared to conditioned media
# From the text: as §1, §2
# [8] = test system: NFκB activation by TNFα and IL1β; experiment: κB luciferase assay in A549 cells pretreated with SDC2 recombinant protein; type: cell-based; settings: 10 ng/mL TNF-α/IL-1β, 24 hours
# Experimental: A549 cells stably transduced with κB luciferase plasmid were pretreated for 1 hour with SDC2 recombinant protein. 10 ng/mL TNF-α/IL-1β was added to the media and luciferase assay performed after 24 hours. The results are shown in FIG. 5. ***=p<0.0001 with respect to 0 ng/mL S2
# A549 cells stably transduced with KB luciferase plasmid and treated for 24 hours with recombinant SDC2. In the top panel: cytokines were added to the media for 24 hours and luciferase assay performed. In the bottom panel: media was replaced before addition of cytokines for 24 hours. *=p<0.01 with respect to 0 ng/mL S2; ***=p<0.0001 with respect to 0 ng/mL S2; +++=p<0.0001 with respect to 100 ng/mL S2.
# [9] = at 24 hrs, human cell populations isolated on SDC2 expression
# [10] = other series of tests, time not given
molecule,measurement,setting,value
2-pyrrolidinone-n-butyric acid [PBA],SDC2 RNA levels,[1]; [9],increased SDC2 RNA levels
"OC1c2cc3ccc4cccc5ccc(c2C2OC2C1O)c3c45 (stereo not drawn) [BPDE, benzo[a]pyrene-7,8-diol-9,10-epoxide]",increase of SDC2 secretion,[2],approximately 3 fold
"COC(=O)CNC(=O)C(=O)OC [DMOG, Dimethyloxaloylglycine]",SDC2 RNA levels,[1]; [10],very robust increase in SDC2 RNA
C[S+](C)[O-] [DMSO],SDC2 RNA levels,[1]; [10],increased SDC2 RNA levels
COc1ccc(C2=N[C@@H](c3ccc(Cl)cc3)[C@@H](c3ccc(Cl)cc3)N2C(=O)N2CCNC(=O)C2)c(OC(C)C)c1 [Nutlin-3a],SDC2 shedding,"[3]; 5, 10, 20 μM, compared to DMSO control",dose-dependent increase in SDC2 shedding
same,amount of shed SDC2,"[3]; Nutlin-3a 20 μM, serum-free, average of three MSC donors",~1000 pg/mL
O=C1CCc2c(ccc3ccccc23)O1 [Splitomicin],SDC2 RNA levels,[1]; [9],increased SDC2 RNA levels; also recorded: greatest stimulation
CCCC(CCC)C(=O)O [Valproic Acid],SDC2 RNA levels,[1]; [9],increased SDC2 RNA levels
B1,Cancer Cell Migration,[4],↓—
same,Cancer Cell Migration,[5]; Recombinant SDC2 100 ng/ml,↓↓
same,Cancer Cell Migration,[5]; Recombinant SDC2 500 ng/ml,↓↓↓↓↓—
same,Cancer Cell Migration,[6]; Recombinant SDC2 100 ng/ml,↓↑
same,Cancer Cell Migration,[6]; Recombinant SDC2 500 ng/ml,↓↓
same,Cancer Cell Migration,[6]; Recombinant SDC2 1000 ng/ml,↓↑
same,Cancer Cell Migration,[7]; Recombinant SDC2 100 ng/ml,↓
same,Cancer Cell Migration,[7]; Recombinant SDC2 500 ng/ml,↓
same,Cancer Cell Migration,[7]; Recombinant SDC2 1000 ng/ml,↓
same,NFκB activation by TNFα and IL1β,[8],suppressed NFκB activation
